Measured values reported in patent US20150010572A1 (SAMSUNG ELECTRONICS, published 2015).
Changes are numbered by the printed parent chain.

How the values were obtained:
Experiment in all cases: ELISA, antibody coated, 250 ng FLAG-tagged mutant Ang-2, anti-FLAG-HRP, OD450 relative to native Ang-2
[1] = target: T1, mutant Ang-2 protein, P452 substituted with alanine (FLAG-tagged at N-terminal) (human, UniProt O15123 281-496, limits assumed)
T1 chain: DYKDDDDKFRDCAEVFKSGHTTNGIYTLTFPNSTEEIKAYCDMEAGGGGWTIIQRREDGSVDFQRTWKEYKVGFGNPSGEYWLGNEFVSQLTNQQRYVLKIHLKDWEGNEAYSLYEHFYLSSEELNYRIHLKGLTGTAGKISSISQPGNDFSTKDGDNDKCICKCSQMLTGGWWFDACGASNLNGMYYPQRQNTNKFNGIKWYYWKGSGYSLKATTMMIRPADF
Protocol: (§1) Each well of a 96-well MaxiSorp™ flat-bottom plate (Nunc) was coated with 50 ul (microliter) of 1000 nM antibodies (Example 2). Then, the plate was washed five times with a 0.05% (v/v) Tween-20 containing PBS (PBST) and blocked with a 1% (v/v) BSA containing PBS at a room temperature for 2 hours. 250 ng of each mutant Ang-2 protein obtained by substituting S417, Q418, P419, N421, 1434, D448, A449, P452, Y460, N467, K468, or F469 residue of Ang-2 protein tagged with a FLAG sequence ([…], Sigma) at its N-terminal with alanine was added to each well of the plate, which was then allowed to react at a room temperature for 2 hours.
(§2) The plate was washed five times with a 0.05% (v/v) Tween-20 containing PBS, reacted with an anti-FLAG antibody (SIGMA) conjugated with HRP which was diluted in a 1% (v/v) BSA containing PBS at a ratio of 1:5,000 (v/v) at a room temperature for 1 hour, and washed five times with a 0.1% (v/v) Tween-20 containing PBS.
(§3) Finally, 50 ul of TMB substrates (Cell signaling) was added to each well of the plate to induce color development reaction at a room temperature for 3 min. and the reaction was ceased by the addition of 50 ul of Stop solution (Cell signaling) and then, OD450 values were measured on a plate reader (Molecular Devices). By comparing binding affinities with mutated Ang-2 to those of unmutated Ang-2, each epitope of Ang-2 antibodies was identified. The thus obtained measurement results of the binding affinities (%) of mutant Ang-2 against the binding affinity of the native Ang-2 are shown in the following Table 9.

[2] = target: T2, mutant Ang-2 protein, N467 substituted with alanine (FLAG-tagged at N-terminal) (human, UniProt O15123 281-496, limits assumed)
T2 chain: T1 chain with A180P, N195A
Protocol: as §1, §2, §3

[3] = target: T3, mutant Ang-2 protein, F469 substituted with alanine (FLAG-tagged at N-terminal) (human, UniProt O15123 281-496, limits assumed)
T3 chain: T1 chain with A180P, F197A
Protocol: as §1, §2, §3

[4] = target: T4, mutant Ang-2 protein, Y460 substituted with alanine (FLAG-tagged at N-terminal) (human, UniProt O15123 281-496, limits assumed)
T4 chain: T1 chain with A180P, Y188A
Protocol: as §1, §2, §3

[5] = target: T5, mutant Ang-2 protein, N421 substituted with alanine (FLAG-tagged at N-terminal) (human, UniProt O15123 281-496, limits assumed)
T5 chain: T1 chain with N149A, A180P
Protocol: as §1, §2, §3

[6] = target: T6, mutant Ang-2 protein, D448 substituted with alanine (FLAG-tagged at N-terminal) (human, UniProt O15123 281-496, limits assumed)
T6 chain: T1 chain with D176A, A180P
Protocol: as §1, §2, §3

B1: SAIT-Ang-2-AB-m8B3 (antibody, V domains shown)
VH: DVQLQESGPGLVKPSQSLSLSCTVTGYSIASDYAWNWIRQFPGNKVEWMGYINYRGNTDYNPSLKSRSSINRDTSKNQFFLQLNSVTTGDTATYYCARGNFEGAMDYWGQGTSVTVSS
VL: TIVMTQTPKFLLVSAGDRITITCKASQSVSNDVAWYQQKPGQSPKLLIYYASNRYPGVPDRFTGSGYGTDFTFTISTVQAEDLAVYFCQQDYTSPWTFGGGTELEIK
notes: also called KCLRF-BP-00293
**Q.** With B1 as the binder, how does the “% at RBD binding (mutant Ang-2 against native Ang-2)” value (shortened to “% at RBD binding”) [1] read?
**A.** 102%

**Q.** What about the “% at RBD binding” value [2] of the same binder?
**A.** 95.1%

**Q.** And the “% at RBD binding” value [3]?
**A.** 106%

**Q.** And the “% at RBD binding” value [4]?
**A.** 100%

**Q.** What about the “% at RBD binding” value [5] of the same binder?
**A.** 102%

**Q.** What about the “% at RBD binding” value [6] of the same binder?
**A.** 96.1%

B2: SAIT-Ang-2-AB-m2E7 (antibody, V domains shown)
VH: DLQLQESGPGLVKPSQSLSLTCTVTGYSITSDYAWNWIRQFPGNKLEWMGYISYSGSTSYNPSLKSRISITRDTSKNQFFLQLNSLTTEDTATYYCARGDYGNYVGPMDYWGQGTSVTVSS
VL: B1 VL with T1S, I19V, Q37R, P56T, T93S, W96L, G100A, G101R, E103K, I106L
notes: also called KCLRF-BP-00294
**Q.** With B2 as the binder, how does the “% at RBD binding” value [1] read?
**A.** 90.1%

**Q.** What about the “% at RBD binding” value [2] of the same binder?
**A.** 96%

**Q.** And the “% at RBD binding” value [3]?
**A.** 102%

**Q.** What about the “% at RBD binding” value [4] of the same binder?
**A.** 98.7%

**Q.** And the “% at RBD binding” value [5]?
**A.** 98.9%

**Q.** And the “% at RBD binding” value [6]?
**A.** 96.9%
